The record followed here is patent US6680174.

In the test the target is mouse GDF-9 receptor on granulosa cells (mouse). As to the kind of experiment: cell-based or functional assay.

B1: recombinant mouse GDF-9, cleaved, mature, glycosylated form (21 kD) (ligand, UniProt Q07105 307-441, looked up)
chain: GQKAIRSEAKGPLLTASFNLSEYFKQFLFPQNECELHDFRLSFSQLKWDNWIVAPHRYNPRYCKGDCPRAVRHRYGSPVHTMVQNIIYEKLDPSVPRPSCVPGKYSPLSVLTIEPDGSIAYKEYEDMIATRCTCR
modifications: one N-linked oligosaccharide (single N-linked glycosylation site, Asn325)
The molecule B1 yielded a COX-2 mRNA (RT-PCR) after 24 hours with 100 ng/ml GDF-9 of 50 fold; an HAS2 expression (RT-PCR) after 5 hours, 50 ng/ml and 100 ng/ml mGDF-9 against 10 ng/ml of 5 to 10 fold; an HAS2 expression (RT-PCR), granulosa cells cultured ~20 hrs with mGDF-9 media, against CHO control of 10 fold; an HAS2 mRNA (Northern blot, 4.8 kb and 3.2 kb forms) after 5 hours with 50 ng/ml GDF-9 of 9.7 fold. The LH receptor mRNA (RT-PCR) with 10 ng/ml FSH, control-treated against cells treated with 100 ng/ml GDF-9 came to 30 fold; the cumulus expansion of oocytectomized complexes cultured 18 hours with 100 ng/ml GDF-9 (out of 44 complexes) was determined as 40; the fold decrease in HAS2 expression without GDF-9 (0-24 hours) against the peak level induced by 100 ng/ml GDF-9 is 10 fold; the uPA RT-PCR band intensity at 5 hours, 100 ng/ml GDF-9, normalized to HPRT is 15 % of control. Besides, the uPA RT-PCR band intensity at 9 hours, 100 ng/ml GDF-9, normalized to HPRT was 9 % of control and the uPA mRNA (Northern blot) with 50 ng/ml GDF-9 is 40 % of control.
